Test results as given in article PMC8067865 (Molecules, 2021).

Experiments:
Assay in all cases: native MS; 3 to 4.5 uM purified P dimers, buffer exchanged to ammonium acetate (GII.10 Vietnam 125 mM; GII.17 Kawasaki and GII.4 Saga 300 mM; GII.4 MI001 250 mM) pH 7.5; nano-ESI, positive ion mode, 25 °C; monomer-dimer
[1] = target: GII.4 MI001 P domain (VP1 residues 225-530), wildtype N373 (human norovirus GII.4 MI001)
[2] = target: GII.10 Vietnam 026 P domain (VP1 residues 224-538) (human norovirus GII.10 Vietnam 026)
[3] = target: GII.17 Kawasaki 308 P domain (VP1 residues 225-530) (human norovirus GII.17 Kawasaki 308)
[4] = target: fully deamidated (iDiD) GII.4 Saga P domain (VP1 residues 225-530), N373 converted to iso-aspartate (human norovirus GII.4 Saga 2006) (UniProt B5BTR7)
[5] = target: partially deamidated GII.4 MI001 P domain (VP1 residues 225-530), approximately 64% deamidated at N373 (human norovirus GII.4 MI001)
[6] = target: the molecule itself

GII.4 MI001 P domain (VP1 residues 225-530), wildtype N373 (domain or fragment)
stoichiometry N [1]: 2

GII.10 Vietnam 026 P domain (VP1 residues 224-538) (domain or fragment)
stoichiometry N [2]: 2

GII.17 Kawasaki 308 P domain (VP1 residues 225-530) (domain or fragment)
stoichiometry N [3]: 2

fully deamidated (iDiD) GII.4 Saga P domain (VP1 residues 225-530), N373 converted to iso-aspartate (from UniProt B5BTR7 225-530) (domain or fragment)
percent monomers [4]: 32%

partially deamidated GII.4 MI001 P domain (VP1 residues 225-530), approximately 64% deamidated at N373 (domain or fragment)
percent monomers [5]: 16%

B1: GII.4 Saga 2006 P domain (VP1 residues 225-530), wildtype N373 (NN) (domain or fragment)
chain: GPGSKPFTVPILTVEEMTNSRFPIPLEKLFTGPSGAFVVQPQNGRCTTDGVLLGTTQLSPVNICTFRGDVTHIAGSRNYTMNLASLNWNNYDPTEEIPAPLGTPDFVGKIQGLLTQTTKGDGSTRGHKATVYTGSAPFTPKLGSVQFSTDTENDFETHQNTKFTPVGVIQDGSTTHRNEPQQWVLPSYSGRNVHNVHLAPAVAPTFPGEQLLFFRSTMPGCSGYPNMDLDCLLPQEWVQHFYQEAAPAQSDVALLRFVNPDTGRVLFECKLHKSGYVTVAHTGQHDLVIPPNGYFRFDSWVNQFYTLAPM
notes: major capsid protein VP1 of human norovirus GII.4 Saga 2006, protruding (P) domain, VP1 residues 225-530; also called GII.4 Saga P dimer; wildtype GII.4 Saga P domains; source: E. coli BL21(DE3), purified (Ni-NTA, HRV 3C cleavage, SEC; cation exchange to separate pure N373 wildtype); not shown: two His-tags, N-terminal, cleaved
stoichiometry N [6]: 2
